Assay results: the supplement of paper PMC9170038

System: MS2 coat protein
Assay: apparent KD of MS2 coat protein; designed switch direction (-1 OFF switch, 1 ON switch): -1; higher = weaker reporter binding
Method in brief: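 Designed RNA switches were transcribed on Illumina chips by stalled E. coli RNA polymerase and titrated with SNAP-549-labelled MS2 coat protein from 0.7 or 1.5 nM, doubling to 3 µM. Step length ran from 0.8–1.5 h at the lowest concentration to 10–20 min at the highest. The apparent KD is the median over clusters for each design, from curve-fitted normalised cluster fluorescence.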

[1] = Eterna round: R95, input ligand: microRNA oligo, concentration not stated
[2] = Eterna round: R95, input ligand: FMN 200 uM
[3] = Eterna round: R95, input ligand: none
[4] = input ligand: microRNA oligo, concentration not stated

| Sequence | apparent KD of MS2 coat protein (input ligand: FMN 200 uM) | apparent KD of MS2 coat protein (input ligand: none) | apparent KD of MS2 coat protein [1] | other results |
| --- | --- | --- | --- | --- |
| UCCUCACAUGAGGAUCACCCAUGUCAGGAUAUCCAACAUGCUCCCAAAACCACGCAUCGGAGAAGGGACAUGCA [EX1 A.6] (Eterna round: R97, puzzle: Exclusion 1) | 21.7 nM | 17.7 nM |  |  |
| UCCUCACAUGAGGAUCACCCAUGUUAGGAUAUCUUAGAGCGCGAAUGACAGUUCUUUAAGAGAAGGAACUGGGC [Exclusion 1 (MOD1.2 of Edarti)] (Eterna round: R97, puzzle: Exclusion 1) | 50.5 nM | 20.1 nM |  |  |
| UCCUUAUCGGUCAGGAUAUACACCCGUUUCUCCUUGUAGAAGGGACAUGAGGAUCACCCAUGUACAGUACAUUU [alecazam66] (Eterna round: R97, puzzle: Brourd's mod of Exclusion 4) | 29.6 nM | 26.8 nM |  |  |
| UCGAGGUCAGGAUAUACAUGAGGAUCACCCAUGUGGAAGUAAGGUAGGAGAAGAGUAGGUAGAAGGGACGAGAG [JR_Exclu3_Sub050] (puzzle: Exclusion 3) |  |  | 30.8 nM |  |
| UCGCUGCGAGGAUAUACGUGCGCGCGCGCGCGCGCGCGCGUACAUGAGGAUCACCCAUGUAGAAGGCGCGCUGC [Apr-15 SS2-1] (puzzle: Exclusion 2) |  |  | 12.5 nM |  |
| UCGCUGCGAGGAUAUACGUGCGCGCGCUCGCGUUCGCGCGUACAUGAGGAUCACCCAUGUAGAAGGCGCGCUGC [Apr-15 SS2-5] (puzzle: Exclusion 2) |  |  | 11.1 nM |  |
| UCGGCGCGAGGAUAUACGUUUGCUUUUUAGGAUCGUUGCGUACAUGAGGAUCACCCAUGUAGAAGGCGCGCCGC [Apr-15 SS2-27] (puzzle: Exclusion 2) |  |  | 12.4 nM |  |
| UCGUGAUUAGAGGAUAUAUUUUGAGUCAGAACAAUAGAAGGCUAAACAUGAGGAUCACCCAUGUAAAUGUGUAA [JR_Ex6_Sub061] (Eterna round: R97, puzzle: Exclusion 6) | 184 nM | 34.9 nM |  |  |
| UCGUGGUAAAUCAGGUGAUGUCUGAUAGGAUGGACUUUGACAUGAGGAUCACCCAUGUUGCUUUUUGCCCGUCUUAA [JR_SV3TOV2_Sub044] (puzzle: Sensor v3, turn-off variant 2) |  |  | 27.3 nM | apparent KD of MS2 coat protein [2]: 16.1 nM; apparent KD of MS2 coat protein [3]: 15.2 nM |
| UCUAAACAUGAGGAUCACCCAUGUGAGGAUAUGAUGCAGCAGUGGUCUACGCUGUGCAUCAGAAGGCGCAUGUG (puzzle: Exclusion 1) |  |  | 72.2 nM | apparent KD of MS2 coat protein [2]: 148 nM; apparent KD of MS2 coat protein [3]: 80.4 nM |
| UCUGCCGCCGUGAGGAUAUGCCCGAAAAAACGCGGGCAGAAGGCACAUGAGGAUCACCCAUGUCCCGCGGUUUU [salish99_bmx4_r4_136] (Eterna round: R97, puzzle: Brourd's mod of Exclusion 4) | 31 nM | 15.8 nM |  |  |
| UCUGUUAUGCGAGGAUAUCGACCAUUCCUCUUAACAUGAGGAUCACCCAUGUGCUAAACCUACAACGAGAAGGCGCUCAUACUC [JR_ExcNG2_Sub068] (Eterna round: R96, puzzle: Exclusion NG 2) | 156 nM | 143 nM |  | apparent KD of MS2 coat protein [4]: 102 nM |
| UCUUUACAUGAGGAUCACCCAUGUCAGGAUAUCAACUUUUGGGACUUCGGAUAUAAGAUGAGAAGGGACACCGG [Eternabot (L2) Solution 53] (Eterna round: R97, puzzle: Exclusion 1) | 19.2 nM | 19.4 nM |  |  |
| UGAAAGUGAGGAUAUCCAAUAUAUGACAUGAGGAUCACCCAUGUUUCCACUCGUACCUCCGGAGAAGGCACAAGGU [Ex5 #57] (Eterna round: R97, puzzle: Exclusion 5) | 25.5 nM | 29.4 nM |  |  |
| UGAAAGUGAGGAUAUGGUGAGUAGUGCCUGAGCGCUGCUCACCAGAAGGCACAUGAGGAUCACCCAUGUAAAUG [Mat - Exclusion 4 - Mod of JL - D20] (puzzle: Exclusion 4) |  |  | 38.9 nM |  |
| UGAAUGUGAGGAUAUGGUGAGUAGUGCCUAAGCGCUGCUCACCAGAAGGCACAUGAGGAUCACCCAUGUACUUG [Mat - Exclusion 4 - Mod of JL - D19] (puzzle: Exclusion 4) |  |  | 47.9 nM |  |
| UGACUACAUGAGGAUCACCCAUGUCAGGAUAUGCCGUUAAAUUAACAUCAACAUACGGGUAGAAGGGACAGCGU [1st #5] (Eterna round: R97, puzzle: Exclusion 1) | 27.2 nM | 29.4 nM |  |  |

| Sequence | apparent KD of MS2 coat protein (input ligand: FMN 200 uM) | apparent KD of MS2 coat protein (input ligand: none) | apparent KD of MS2 coat protein [1] | other results |
| --- | --- | --- | --- | --- |
| UGAGACUGAGGAUAUACUAGACUACAAAGUAGUCAGUGGGUACAUGAGGAUCACCCAUGUAGAAGGCAGCCUCG [Omei Repeat Sequence v1] (Eterna round: R97, puzzle: Exclusion 2) | 289 nM | 35.9 nM |  |  |
| UGAGACUGAGGAUAUACUAGCCCAUAAAGUGGGUUGUGGGUACAUGAGGAUCACCCAUGUAGAAGGCAGCCUCG [Omei Repeat Sequence v4] (Eterna round: R97, puzzle: Exclusion 2) | 516 nM | 75.4 nM |  |  |
| UGAGUGCUGCGAGGAUAUACAUGAGGAUCACCCAUGUAAACCUGUGAGGCUUUGCCUCACAGGAUGUAGAAGGCGCAGUACUCU [JL ENG2 1.16] (Eterna round: R96, puzzle: Exclusion NG 2) | 15.5 nM | 13.2 nM |  | apparent KD of MS2 coat protein [4]: 9.94 nM |
| UGAUCACAUGAGGAUCACCCAUGUCAGGAUAUCGUCACUGGAGCUUCGGCUCCAGUGACGAGAAGGGACAUAAU [E1/3-A1] (Eterna round: R97, puzzle: Exclusion 1) | 77.4 nM | 141 nM |  |  |
| UGAUCUAGGCGAGGAUAUACAUGAGGAUCACCCAUGUAAACGUGACAUGGAAACAUGUCACGUGUGUAGAAGGCGCCUAGAUCU [MOD2 ENG2 3.54 by JL] (Eterna round: R96, puzzle: Exclusion NG 2) | 15.7 nM | 13.2 nM |  | apparent KD of MS2 coat protein [4]: 10.8 nM |
| UGAUCUUUUGUUAGGAUAUGCUGGGUUUUUUCUCAGCAGAAGGGACAUGAGGAUCACCCAUGUUCUCUCUUUUU [Magic-08] (puzzle: Brourd's mod of Exclusion 4) |  |  | 9.72 nM |  |
| UGAUGACAUGAGGAUCACCCAUGUCAGGAUAUUGAAGUUGAAGUGAAAGCUUCGGCUUCGAGAAGGGACUGUCG [-29.3, -26.3 kcal, A 28% sequence 3] (Eterna round: R97, puzzle: Exclusion 1) | 29.5 nM | 25 nM |  |  |
| UGAUUGUUUACCAGGUUAUACAUGAGGAUCACCCAUGUAGAUCCUACGUGCGCGUUGUUCCGCUCGUCUUAUUGCCA [Sensor-V1 #80] (Eterna round: R97, puzzle: Sensor, turn-off variant 1) | 22.6 nM | 24.8 nM |  |  |
| UGCAGACGAGGAUAUAGAUUUAAGUACAUGAGGAUCACCCAUGUACAUAUGUAUUUAGAUUUAGAAGGCGUCUGCU [E5/16-A4] (Eterna round: R97, puzzle: Exclusion 5) | 28.5 nM | 29.8 nM |  |  |
| UGCCGUAGAGGAUAUACAUUGAAUAAGAUUCAUGUAGAACUACAUGAGGAUCACCCAUGUAGAAGGCUAUGGCU [JL-ex2-4.38 Eli mod] (Eterna round: R97, puzzle: Exclusion 2) | 29.5 nM | 16.9 nM |  |  |
| UGCGGGCUUUUGAGACCUCACAUGAGGAUCACCCAUGUGCUUGUCUUGUGGGUCGGUCGGUCGUUGGCUGGCUGGCU [-29.6, -52.1 kcal, A 10%] (Eterna round: R97, puzzle: Sensor, turn-off variant 1) | 18 nM | 17.8 nM |  |  |
| UGCGGGCUUUUGAGACCUCACAUGAGGAUCACCCAUGUGCUUGUCUUGUGGGUGGGUAGGUCGUUGGCUGACUCACG [Sensor-V1 #98] (Eterna round: R97, puzzle: Sensor, turn-off variant 1) | 68.2 nM | 68.9 nM |  |  |
| UGGAGAUAUAAGGAUAUAUUAGGAGGAGAGGAAAUAGAAGGUGUAACAUGAGGAUCACCCAUGUACCUCAUGUA [Default title] (Eterna round: R97, puzzle: Exclusion 6) | 693 nM | 985 nM |  |  |
| UGGGUCCAAGGAUAUACAUGAGGAUCACCCAUGUGAGAUUCGAUGCUGUGCCAAUUGUGUAGAAGGUGGCCACC [Eternabot (L2) Solution 32] (Eterna round: R97, puzzle: Exclusion 3) | 45.3 nM | 44.1 nM |  |  |
| UGGUAACAUGAGGAUCACCCAUGUCAGGAUAUCAUGAAGAGGAGAGGAGAGGAGAGGAUGAGAAGGGACUAUAU [Excluse me! 13 - Jieux - Exclusion 1] (puzzle: Exclusion 1) |  |  | 30.4 nM | apparent KD of MS2 coat protein [2]: 39 nM; apparent KD of MS2 coat protein [3]: 38.4 nM |
| UGGUCACAUGAGGAUCACCCAUGUCAGGAUAUCGUCACUGGAGCUGCGGCUCCAGUGACGAGAAGGGACAUAAU [E1/6-A3] (Eterna round: R97, puzzle: Exclusion 1) | 162 nM | 253 nM |  |  |
